We go through 1 molecule from PMC10585395.

For this test, the target named is Regulatory ATPase variant A (RavA) (E. coli) (UniProt P31473).

B1: von Willebrand factor type A interacting with AAA+ ATPase (ViaA) (natural protein)
chain: MLTLDTLNVMLAVSEEGLIEEMIIALLASPQLAVFFEKFPRLKAAITDDVPRWREALRSRLKDARVPPELTEEVMCYQQSQLLSTPQFIVQLPQILDLLHRLNSPWAEQARQLVDANSTITSALHTLFLQRWRLSLIVQATTLNQQLLEEEREQLLSEVQERMTLSGQLEPILADNNTAAGRLWDMSAGQLKRGDYQLIVKYGEFLNEQPELKRLAEQLGRSREAKSIPRNDAQMETFRTMVREPATVPEQVDGLQQSDDILRLLPPELATLGITELEYEFYRRLVEKQLLTYRLHGESWREKVIERPVVHKDYDEQPRGPFIVCVDTSGSMGGFNEQCAKAFCLALMRIALAENRRCYIMLFSTEIVRYELSGPQGIEQAIRFLSQQFRGGTDLASCFRAIMERLQSREWFDADAVVISDFIAQRLPDDVTSKVKELQRVHQHRFHAVAMSAHGKPGIMRIFDHIWRFDTGMRSRLLRRWRR
B1: the ATPase activity of 0.5 uM RavA with equimolar full-length ViaA (ATP-NADH coupled assay) came out at 3 fold.
